Measured values taken from patent US6432692 (WISCONSIN ALUMNI RESEARCH FOUNDATION, dated 2002).

T1: full length aryl hydrocarbon receptor (AHR) translated in reticulocyte lysate (pSportAHR) (UniProt P30561 1-805, limits assumed)
T1 construct: also called Ah receptor; radiolabeled AHR
T1 sequence (looked up): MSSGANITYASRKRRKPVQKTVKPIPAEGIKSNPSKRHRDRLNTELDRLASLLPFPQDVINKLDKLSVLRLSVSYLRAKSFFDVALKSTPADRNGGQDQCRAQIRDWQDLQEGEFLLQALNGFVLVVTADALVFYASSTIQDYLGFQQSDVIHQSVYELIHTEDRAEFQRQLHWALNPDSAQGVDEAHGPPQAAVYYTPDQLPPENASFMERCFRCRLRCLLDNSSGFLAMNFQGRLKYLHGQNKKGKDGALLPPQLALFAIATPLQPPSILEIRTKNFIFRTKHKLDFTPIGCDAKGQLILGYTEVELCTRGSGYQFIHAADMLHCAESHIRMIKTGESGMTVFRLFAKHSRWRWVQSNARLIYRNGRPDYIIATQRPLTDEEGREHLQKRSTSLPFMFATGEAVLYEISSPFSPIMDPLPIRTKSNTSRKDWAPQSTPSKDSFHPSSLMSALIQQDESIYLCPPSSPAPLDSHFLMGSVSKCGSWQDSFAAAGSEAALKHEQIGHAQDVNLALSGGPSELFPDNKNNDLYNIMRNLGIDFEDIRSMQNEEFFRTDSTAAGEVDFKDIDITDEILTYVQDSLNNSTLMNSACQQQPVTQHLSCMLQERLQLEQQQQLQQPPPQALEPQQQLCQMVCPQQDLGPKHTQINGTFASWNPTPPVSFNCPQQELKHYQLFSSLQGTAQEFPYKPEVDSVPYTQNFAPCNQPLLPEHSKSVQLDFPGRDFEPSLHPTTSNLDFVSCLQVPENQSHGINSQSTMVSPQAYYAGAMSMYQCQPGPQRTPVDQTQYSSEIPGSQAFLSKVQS


How the values were obtained:
Hsp90 = molecular target: T2, Hsp90; test: co-immunoprecipitation of 35S labeled Hsp90 with T7-agarose, bands quantified with a phosphoimager
T2 construct: also called radiolabeled Hsp90; 35S labeled Hsp90
Description: (§1) The bacterial expression of FKBP52 and ARA9 was confirmed by SDS-PAGE followed by both Coomassie stain and western blot analysis with an anti-T7 peptide antibody (Novagen). Immunoprecipitations of complexes with either AHR- or Hsp90 were performed in MENG buffer as above, using anti-T7 agarose (Novagen). The complexes were then precipitated and analyzed by SDS-PAGE and autoradiography.
(§2) Figure 3A: FIG. 3A (Top). AHR was translated in reticulocyte lysates in the presence of ^35S-methionine. Labeled proteins were then incubated in the presence of T7 tagged ARA9, T7 tagged FKBP52 or untransformed BL21 extract and complexes were separated and visualized as above. "Input" lanes represent 25% of total protein (AHR or Hsp90) used in experiments. Bottom: The bands radioactivity present in the AHR or Hsp90 bands was quantified using a phosphoimager to make comparisons of relative coimmunoprecipitation. The bars represent the means from three independent experiments. The error bars indicate the standard error of the mean. Figure 3B: FIG. 3B. Hsp90 was used in a similar experiment described in FIG. 3A.
(§3) Specificity of ARA9 for AHR: The structural similarity between ARA9 and FKBP52 led us to compare the relative capacity of these two factors to bind AHR. […] The AHR-ARA9 or AHR-FKBP52 associations were determined by coimmunoprecipitation with T7-agarose. […]

[1] = molecular target: T1, full length aryl hydrocarbon receptor …; test: co-immunoprecipitation of 35S-labeled AHR with T7-agarose, bands quantified with a phosphoimager
Description: as §1, §2, §3

capacity to interact with Hsp90 relative to ARA9 (Hsp90) [fold]	efficiency at precipitating AHR relative to FKBP52 [1] [times]	Binder
4		T7 tagged FKBP52 expressed in bacteria (pET17b-FKBP52, PL947) (other) MASMTGGQQMGMTAEEMKAAESGAQSAPLPLEGVDISPKQDEGVLKVIKREGTGTETPMIGDRVFVHYTGWLLDGTKFDSSLDRKDKFSFDLGKGEVIKAWDIAVATMKVGELCRITCKPEYAYGSAGSPPKIPPNATLVFEVELFEFKGEDLTDDEDGGIIRRIRTRGEGYARPNDGAIVEVALEGYYKDRLFDQRELRFEVGEGESLDLPCGLEKAIQRMEKGEHSILYLKPSYAFGNAGKEKFQIPPYAELKYEVHLKSFEKAKESWEMSSEEKLEQSAIVKERGTVYFKEGKYKQALLQYKKIVSWLEYESSFSSEEVQKAQALRLASHLNLAMCHLKLQAFSAAVESCNKALELDSNNEKGLFRRGEAHLAVNDFDLARADFQKVLQLYPSNKAAKAQLAVCQQRIRKQIAREKKLYANMFERLAEEENKAKAEVAAGDHPMDTEMKDERNDVAGSQSQVETEA
	~4	T7 tagged full length ARA9 expressed in bacteria (pET17b-ARA9, PL799) (other, Expressed in BL21(DE3); also called T7-tagged ARA9; FL) MASMTGGQQMGMADIIARLREDGIQKRVIQEGRGELPDFQDGTKATFHYRTLHSDDEGTVLDDSRARGKPMELIIGKKFKLPVWETIVCTMREGEIAQFLCDIKHVVLYPLVAKSLRNIAVGKDPLEGQRHCCGVAQMREHSSLGHADLDALQQNPQPLIFHMEMLKVESPGTYQQDPWAMTDEEKAKAVPLIHQEGNRLYREGHVKEAAAKYYDAIACLKNLQMKEQPGSPEWIQLDQQITPLLLNYCQCKLVVEEYYEVLDHCSSILNKYDDNVKAYFKRGKAHAAVWNAQEAQADFAKVLELDPALAPVVSRELRALEARIRQKDEEDKARFRGIFSH
